This experiment concerns the target MBP-TRIM25-FLAG (human, UniProt Q14258 1-630). Briefly: pull-down.

Chain of MBP-TRIM25-FLAG (Q14258 whole entry): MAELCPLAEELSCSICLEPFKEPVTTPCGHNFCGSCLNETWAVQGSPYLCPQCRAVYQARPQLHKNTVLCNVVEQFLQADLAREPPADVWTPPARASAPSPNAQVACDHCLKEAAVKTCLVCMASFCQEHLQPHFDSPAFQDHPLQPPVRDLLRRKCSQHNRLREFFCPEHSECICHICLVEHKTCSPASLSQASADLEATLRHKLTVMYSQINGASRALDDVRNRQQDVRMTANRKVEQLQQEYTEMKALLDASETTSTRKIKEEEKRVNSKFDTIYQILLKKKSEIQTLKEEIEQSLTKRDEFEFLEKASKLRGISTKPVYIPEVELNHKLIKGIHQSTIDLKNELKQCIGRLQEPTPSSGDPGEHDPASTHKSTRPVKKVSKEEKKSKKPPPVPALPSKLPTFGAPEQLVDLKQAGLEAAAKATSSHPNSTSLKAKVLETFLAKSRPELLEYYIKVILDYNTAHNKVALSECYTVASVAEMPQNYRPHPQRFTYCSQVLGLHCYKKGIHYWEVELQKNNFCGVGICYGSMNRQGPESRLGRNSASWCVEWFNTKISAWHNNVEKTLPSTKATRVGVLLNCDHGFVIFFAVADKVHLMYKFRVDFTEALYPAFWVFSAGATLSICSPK

B1: GST-PR8 wt NS1 (natural protein)
chain: MDPNTVSSFQVDCFLWHVRKRVADQELGDAPFLDRLRRDQKSLRGRGSTLGLDIETATRAGKQIVERILKEESDEALKMTMASVPASRYLTDMTLEEMSRDWSMLIPKQKVAGPLCIRMDQAIMDKNIILKANFSVIFDRLETLILLRAFTEEGAIVGEISPLPSLPGHTAEDVKNAVGVLIGGLEWNDNTVRVSETLQRFAWRSSNENGRPPLTPKQKREMAGTIRSEV
As to B1, the binding result is listed as “binds”.

These data come from publication PMC2737813 (Cell host & microbe, 2009).
